From patent US7803758B2, “I kappa B kinase complex as a target for the treatment of Huntington's disease” (California Institute of Technology, priority 2004, dated 2010)

T1: IKKβ subunit (Homo sapiens, UniProt O14920)
T1 sequence (O14920 1-756): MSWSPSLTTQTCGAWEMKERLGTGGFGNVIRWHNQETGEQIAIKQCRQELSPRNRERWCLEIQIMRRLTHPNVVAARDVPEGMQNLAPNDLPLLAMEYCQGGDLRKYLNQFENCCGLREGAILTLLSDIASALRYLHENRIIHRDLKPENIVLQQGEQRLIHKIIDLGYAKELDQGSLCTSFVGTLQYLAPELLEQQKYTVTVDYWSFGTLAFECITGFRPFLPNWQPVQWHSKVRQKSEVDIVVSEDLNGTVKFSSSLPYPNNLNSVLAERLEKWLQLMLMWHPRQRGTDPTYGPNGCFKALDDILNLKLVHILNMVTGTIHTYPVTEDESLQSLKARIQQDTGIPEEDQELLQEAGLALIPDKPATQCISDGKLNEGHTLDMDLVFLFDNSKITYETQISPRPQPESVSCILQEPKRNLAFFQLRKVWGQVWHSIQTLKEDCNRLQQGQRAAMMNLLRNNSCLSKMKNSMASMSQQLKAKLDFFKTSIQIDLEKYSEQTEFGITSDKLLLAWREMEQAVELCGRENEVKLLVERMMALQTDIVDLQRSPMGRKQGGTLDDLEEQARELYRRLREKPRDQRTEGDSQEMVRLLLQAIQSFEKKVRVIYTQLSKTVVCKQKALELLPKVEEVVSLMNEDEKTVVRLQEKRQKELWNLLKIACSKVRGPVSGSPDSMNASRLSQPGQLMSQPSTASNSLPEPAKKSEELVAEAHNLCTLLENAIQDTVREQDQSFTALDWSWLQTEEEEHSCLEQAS

B1: DN-IKKγ: IKKγ with the first 134 amino acids removed; N-terminally truncated form that interferes with IKK activity (protein, UniProt Q9Y6K9 135-419, looked up, fragment)
chain: MAEDKASVKAQVTSLLGELQESQSRLEAATKECQALEGRARAASEQARQLESEREALQQQHSVQVDQLRMQGQSVEAALRMERQAASEEKRKLAQLQVAYHQLFQEYDNHIKSSVVGSERKRGMQLEDLKQQLQQAEEALVAKQEVIDKLKEEAEQHKIVMETVPVLKAQADIYKADFQAERQAREKLAEKKELLQEQLEQLQREYSKLKASCQESARIEDMRKRHVEVSQAPLPPAPAYLSSPLALPSQRRSPPEEPPDFCCPKCQYQAPDMDTLQIHVMECIE

What was measured:
[1] = system: PC12 cells expressing mutant HDx1; test: Mutant HDx1 toxicity in PC12 cells treated with IKK inhibitor; assay type: cell-based; settings: Example 5
Experimental: To examine the effects of a small molecule IKK inhibitor on mutant Htt toxicity, PC12 cells expressing mutant HDx1 are treated with herbimycin or another known IKK inhibitor plus β-gal and NF-κB reporter in six-well plates, essentially as described above in Example 4.

[2] = system: NF-κB-dependent gene expression; test: NF-κB luciferase gene reporter assay in inducible PC12 cells expressing mutant HDx1; assay type: cell-based
From the text: Gene Reporter and transfections. The pNF-κB-luciferase with five enhanced elements and the control plasmid without NF-κB binding sites, pCIS-CK luciferase, were used for gene reporter assays (Strategene, La Jolla, Calif.). To normalize for transfection efficiency between samples, a β-galactosidase (β-gal) construct expressed from the EF-1α promoter (Invitrogen, Carlsbad, Calif.), was included in all gene reporter assays. PC12 cells were transfected with control or NF-κB-luciferase plasmids using lipofectamine-plus. On the following day, cells were left untreated or stimulated for 8 hr with 1 μg/ml ecdysone to induce expression of HDx1. […] Luciferase activity was measured by addition of the substrate (Promega, Madison, Wis.) to equal amounts of protein from each sample. […] All gene reporter assays were corrected for transfection efficiency by normalizing the units if β-gal in the extracts, using the β-gal assay (Invitrogen). β-gal values from the samples were divided by the β-gal value from control, 25polyQ, noninduced PC12 cells (no expression of HDx1) and multiplied by each corresponding luciferase reading. […]
Gene Reporter and transfections. […] Protein concentration was determined by the BCA method (Pierce, Rockford, Ill.). […] Bound p65 was detected with a goat anti-rabbit antibody conjugated to horseradish peroxidase. […]

IKKβ subunit = target: T1, IKKβ subunit; settings: Ogino et al., Mol. Pharmacol. 2004; cited from earlier work
HEK-293 cells [3] = test: Mutant HDx1 toxicity in transfected HEK-293 cells (count of condensed GFP-positive bodies); assay type: cell-based, Human; settings: 48 hr after transfection
Experimental: (§1) Transfection of HEK-293 cells with mutant HDx1-EGFP alone (Kasantsev et al., 1999) or with one of the following constructs, full-length (F), DN, and deleted C terminus (DC) of IKKγ (provided by Dr. E. Zandi, University of Southern California) Rothwarf et al., 1998) or ΔF-βTrCP, was done using lipofectamine-plus reagents (Invitrogen). For histochemistry, cultured cells were fixed in 4% paraformaldehyde for 30 min, permeabilized with 70% methanol for 1 hr., and washed with PBS. Cells were stained with anti-HA for IKKγ or anti-myc for ΔF-βTrCP (Cell Signaling, Beverly, Mass.) followed by a goat anti-mouse antibody conjugated by Alexa 594 (Molecular Probes, Eugene, Oreg.). Toto-3, a dimeric cyanine, was used to stain nuclei (Molecular Probes). […] Mutant HDx1 toxicity was assessed by counting the number of condensed GFP-positive bodies, which are remnants of […] deoxynucleotidyl transferase-mediated biotinylated UTP nick endlabeling (TUNEL)-positive (TUNEL^+) cells (Khoshnan et al., 2002), using a florescence microscope. […] Apoptotic cells were labeled with terminal deoxynucleotidyl transferase using digoxigenin-labeled nucleotides and detected by anti-digoxigenin antibody and rhodamine-conjugated secondary according to the instructions provided by the manufacturer (Chemicon, Temecula, Calif.).

mutant HDx1 = test: Confocal examination of mutant HDx1 aggregation in HEK-293 cells; assay type: cell-based, Human; settings: early time point before widespread toxicity
Experimental: as §1

striatal MSNs = test: Brain slice neurodegeneration assay (biolistic transfection of MSNs with HDx1); assay type: cell-based; settings: P7 rat brain slices; for effect on MSNs expressing WT HDx1: coexpression with WT HDx1; for neurodegeneration / toxicity of mutant HDx1 in MSNs: coexpression with mutant HDx1, 7 d
Experimental: Brain slice preparation. All animal experiments were performed in accordance with the Institutional Animal Care and Use Committee and Duke University Medical Center Animal Guidelines. Postnatal day 7 (P7) CD Sprague Dawley rats (Charles River Laboratory, Raleigh, N.C.) were decapitated, and the brains were surgically removed and placed in ice-cold Neurobasal medium (Invitrogen). The tissue was fixed to a chilled, stainless steel Vibratome stage using cyanoacrylate glue (Krazy-Glue) and covered with Neurobasal medium. Coronal brain slices (250 μm thick) were cut by Vibratome (VT1000S; Leica, Nusslock Germany) as described previously (Edgerton and Reinhart, 2003). Brain slices were kept at 37° C. in 5.0% CO2 for 1 hr.
Bolistic transfection. Gold particles (1.6 μm gold microcarriers; BioRad, Hercules, Calif.) were used as DNA carriers for transfection as described previously (Lo et al., 1994). Briefly, gold particles were sonicated in 0.05 M spermidine in the presence of plasmid DNA. The gold-DNA mixture was washed three times in 100% ethanol before being loaded into Helios plastic cartridges (Bio-Rad) according to manufacturer's instructions. Slices were transfected using a Bio-Rad Helios gun with a cyan fluorescent protein (CFP)-tagged Htt fragment, together with yellow fluorescent protein (YFP) as a morphometric marker. In a number of experiments, one of the IKKγ constructs was also cotransfected with the Htt-construct and YFP. CFP-tagged Htt fragments were exon-1-N-terminal fragments containing either a short-Q (Q23) or a long-Q (Q148) polyQ domain.
Brain slice neurodegeneration assay. For each condition, transfections were performed on […] brain slices per experiment. Protein expression and neurodegeneration (loss of processes, shriveling of the soma) were assay 2-7 d after transfection using a Leica fluorescence microscope with appropriate filters for YFP and CFP. The total area of the striatum was identified, and transfected MSNs were identified by their morphology. CFP fluorescence was used to determine expression of Htt fragments and their aggregation into macro-inclusions. Each experiment involved three to twelve transfected brain slices per condition, and the data are means from six independent experiments for each condition.

HEK-293 cells [4] = test: TUNEL staining of HEK-293 cells transfected with mutant HDx1; assay type: cell-based, Human; settings: HEK-293 cells cotransfected with mutant HDx1
Experimental: as §1

GST-HDx1 = target: T2, GST-HDx1 (Homo sapiens, UniProt P42858, INS38QQQQQQQQQQQQQQQQQQQQQQQQQQQQQQ); test: GST pull-down binding of in vitro-translated IKKγ constructs to GST-HDx1; settings: [35S] methionine-labeled construct, GST-HDx1 with expanded polyQ
T2 construct: GST-HDx1 with 20 or 51 polyQs, with and without polyproline domains, was obtained from Dr. E. Wanker; made in house; host or cells: Escherichia coli
Experimental: Protein-protein interaction. In vitro binding of IKKγ to mutant HDx1 was performed using glutathione S-transferase (GST)-pull down assays. GST-HDx1 with 20 or 51 polyQs, with and without polyproline domains, was obtained from Dr. E. Wanker (Max Plank Institute, Berlin, Germany). These constructs were expressed in Escherichia coli and purified with glutathione beads (Amersham Biosciences, Piscataway, N.J.) according to manufacturer's instructions. IKKγ constructs were transcribed and translated in rabbit reticulocytes in the presence of [^35S] methionine (Promega). Briefly, 5 μg of GST-HDx1 bound to beads was incubated with 10 μl of each labeled in vitro-translated IKKγ produce in 500 μl of Tris-based buffer containing 10% glycerol and 6 mM DTT and rocked at room temperature for 2 hr. Beads were washed five times in the same buffer. Bound IKKγ was examined by SDS-PAGE, followed by autoradiography. Recombinant anti-HDx1 intrabodies (Khoshnan et al., 2002) were expressed and examined similarly from binding to GST-HDx1. For competition assays, 10-fold excess in vitro-translated intrabodies were added to GST-HDx1 plus deleted C terminus IKKγ and processed as above.

T2 sequence (P42858 with tags, fused parts or gaps with the stated changes): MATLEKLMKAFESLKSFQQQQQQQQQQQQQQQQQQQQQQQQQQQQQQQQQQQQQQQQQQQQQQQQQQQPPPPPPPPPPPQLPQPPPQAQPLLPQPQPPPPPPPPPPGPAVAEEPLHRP

Row | Molecule | toxicity of mutant HDx1 in cultured cells [1] | NF-κB expression ([2]; PC12 cells expressing mutant HDx1, Example 5) | NF-κB activation (IKKβ subunit) | toxicity of mutant HDx1 (condensed GFP+ bodies) (HEK-293 cells [3]) | aggregation of mutant HDx1 (mutant HDx1) | effect on MSNs expressing WT HDx1 (striatal MSNs) | neurodegeneration / toxicity of mutant HDx1 in MSNs (striatal MSNs) | number of TUNEL+ cells (HEK-293 cells [4]) | mutant HDx1-induced NF-κB-dependent gene expression ([2]; PC12 cells, ecdysone-induced HDx1, with or without NGF) | binding of IKKγ construct to HDx1 (GST-HDx1)
1 | CO[C@H]1[C@@H](OC)C[C@H](C)[C@@H](OC)C2=CC(=O)C=C(NC(=O)/C(C)=C/C=C\[C@H](OC)[C@@H](OC(N)=O)/C(C)=C/[C@@H]1C)C2=O [Herbimycin, Herbimycin A] | blocks the toxicity | reduce NF-κB expression | abrogates NF-κB activation |  |  |  |  |  |  | 
2 | IKKγ: full-length regulatory subunit of the IKK complex, expressed from a construct |  |  |  | little effect on toxicity | promotes aggregation of mutant HDx1 | no obvious effect | no significant effect on neurodegeneration |  |  | 
3 | WT-βTrCP: wild-type E3-ubiquitin ligase βTrCP |  |  |  |  |  |  | does not influence the toxicity of mutant HDx1 in MSNs |  |  | 
4 | B1 |  |  |  | strongly reduces the toxicity of mutant HDx1 | no apparent effect on HDx1 aggregation | no obvious effect | significantly neuroprotective | significantly reduced | blocks basal and NGF-induced NF-κB-dependent gene expression | diminishes binding to HDx1
